This is an account of results in article PMC3615049 (Biochemistry, 2013).

A word on the stoichiometry N: it is a count of units in the complex or per binding partner. For orientation: Km means the substrate concentration at which the rate is half of its maximum. The Vmax is the top rate of the reaction or transport when substrate is in excess. Broadly, the kcat/Km is the second-order rate constant that governs catalysis at low substrate concentration.

The data set “SEC” concerns the molecule itself. Description: SEC.
Substrate in data set [1]: COC1=CC(=O)C(C)=C(C/C=C(\C)CCC=C(C)C)C1=O
Description: purified protein. It counts as biochemical, Homo sapiens. To be noted: 200 μM NADH, 5 μM enzyme, 25 °C, pH 7.0.

Substrate in data set [2]: COC1=CC(=O)C(C)=CC1=O
Description: purified protein. The format is biochemical, Homo sapiens. To be noted: 200 μM NADH, 5 μM enzyme, 20 mM Tris pH 7.0 in H2O, 25 °C.

B1: GB1-hCLK-1 (human Clock-1 with an N-terminal immunoglobulin binding domain of protein G) (enzyme, UniProt Q99807 39-217, looked up)
chain: MTLDNISRAAVDRIIRVDHAGEYGANRIYAGQMAVLGRTSVGPVIQKMWDQEKDHLKKFNELMVTFRVRPTVLMPLWNVLGFALGAGTALLGKEGAMACTVAVEESIAHHYNNQIRTLMEEDPEKYEELLQLIKKFRDEELEHHDIGLDHDAELAPAYAVLKSIIQAGCRVAIYLSERL
As to B1, the “stoichiometry N” value in “SEC” was 2. Further, in the data set “purified protein [1]”, the Michaelis-Menten constant (Km) is 33.8 µM, the Vmax stood at 39.2 µM/min and the kcat/Km worked out at 3870 M⁻¹ s⁻¹. For the same protein, in “purified protein [2]”, the Km came to 68.1 µM, the Vmax amounted to 12.8 µM/min and the kcat/Km stood at 627 M⁻¹ s⁻¹.
